# Measured values reported in publication PMC3577348 (Science (New York, N.Y.), 2012).
# T1: mini-XWnt8 (C-terminal fragment of XWnt8, residues 248-338) displayed on yeast (Xenopus, UniProt P28026 248-338)
# T1 sequence (looked up): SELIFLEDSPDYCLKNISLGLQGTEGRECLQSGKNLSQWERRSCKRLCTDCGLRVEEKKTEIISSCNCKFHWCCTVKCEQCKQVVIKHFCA
# B1: mouse Fz8-CRD (residues 32-151), biotinylated (domain or fragment, UniProt Q61091 32-151, looked up)
# chain: ELACQEITVPLCKGIGYNYTYMPNQFNHDTQDEAGLEVHQFWPLVEIQCSPDLKFFLCSMYTPICLEDYKKPLPPCRSVCERAKAGCAPLMRQYGFAWPDRMRCDRLPEQGNPDTLCMDY
# modifications: biotin on the BAP-tag (enzymatic, GST-BirA ligase)
# B2: human Fz5-CRD (residues 30-150), biotinylated (domain or fragment, UniProt Q13467 30-150, looked up)
# chain: APVCQEITVPMCRGIGYNLTHMPNQFNHDTQDEAGLEVHQFWPLVEIQCSPDLRFFLCSMYTPICLPDYHKPLPPCRSVCERAKAGCSPLMRQYGFAWPERMSCDRLPVLGRDAEVLCMDY
# modifications: biotin on the BAP-tag (enzymatic, GST-BirA ligase)
# How the values were obtained:
# [1] = molecular target: B1; assay: SPR
# [2] = molecular target: B2; assay: SPR
# [3] = molecular target: T1, mini-XWnt8 (C-terminal fragment of …); assay: flow cytometry on cells
Binder,Kd [1] [nM],Kd [2] [nM],percent of yeast stained [3] [%]
"soluble mini-XWnt8 (residues 248-338) with C-terminal six-histidine tag (domain or fragment, Xenopus, UniProt P28026 248-338, looked up) SELIFLEDSPDYCLKNISLGLQGTEGRECLQSGKNLSQWERRSCKRLCTDCGLRVEEKKTEIISSCNCKFHWCCTVKCEQCKQVVIKHFCA",~2400,~3500,–
B1,–,–,~50
B2,–,–,~30
